The values below come from patent publication US20260098072A1, “METHODS OF STIMULATING APPETITE AND/OR INCREASING BODY WEIGHT USING NON-NATURALLY OCCURRING MELANOCORTIN RECEPTOR ANTAGONIST ANALOGS” (Endevica Bio, Inc., priority 2022, published 2026).

Entries after “also recorded” stand apart in the source; their conditions may differ. Positions of bridges follow the written chain, without caps; N, C: chain ends. Non-standard residues stand in square brackets, D forms with d. No end group written: not given here. d2Nal = N[C@H](Cc1ccc2ccccc2c1)C(=O)O; Hyp = O=C(O)[C@@H]1C[C@@H](O)CN1; Nle = CCCC[C@H](N)C(=O)O

One assay deals with LPS model of cachexia. The assay is described as follows: LPS-induced cachexia assay in rats. The assay is classed as in vivo, rat. The note with it: for peripheral (IP) anti-cachexia activity / blood-brain barrier transport: peripheral administration. Here is the method:
The LPS model uses rats were maintained on a 12 h light/dark schedule with ad libitum access to food and water. Animals were handled daily for a minimum of three consecutive days to decrease non-specific handling stress. On the day of the experiment, individually housed animals received intraperitoneal injections of LPS dissolved in 0.5% low-endotoxin BSA, 0.9% saline or 0.5% BSA in 0.9% saline alone, and were returned to their home cage. The drug or control was administered (ICV, IP, or PO, depending on the type of study) 1-hour after LPS injection.
In the experiments performed in accordance with the present technology, a series of melanocortin receptor antagonist peptides were examined in a bacterial endotoxin inducing cachexia assay. For this assay, a rat is challenged with a single peripheral injection of lipopolysaccharide (LPS). LPS is a heat-stable lipo-polysaccharide, the major component of the outer membrane (capsule) of gram negative bacteria. In non-capsulated strains, it appears as a cell surface protein. LPS produces a strong immune response, including secretion of the proinflammatory cytokines Tumor Necrosis Factor α (TNFα) and interleukin-1 (IL-1). Proinflammatory cytokines are known factors that induce cachexia.
Rats are maintained on a 12-hour light/dark cycle. Animals are handled daily for a minimum of 5 consecutive days to acclimate them to the handling required for the experiment. […] On the day of the experiment, individually housed animals receive intraperitoneal (IP) injections of LPS dissolved in 0.5% low-endotoxin BSA, 0.9% saline or 0.5% BSA in 0.9% saline alone, and returned in their home cage. Melanocortin receptor antagonist peptides were administered (IP or by gavage, depending on the type of study) one hour after the LPS injection. The extent of cachexia is measured by the reduction in food intake, measured every two hours. The cachexia typically lasts only a single day. However, rats lose up to 5% of their body weight during a 12-hour light cycle, making up this loss plus food needed for normal growth during the 12-hour dark cycle. Thus, failure to eat appropriately during a single dark cycle is determinable from the animal's weight and any changes thereof.
A series of melanocortin receptor antagonist peptides were examined in a bacterial toxin inducing cachexia assay. In this assay, a rat was challenged with a single peripheral injection of lipopolysaccharide (LPS), a bacterial toxin that rapidly induces acute cachexia. The extent of cachexia was measured as a reduction in food intake, measured every two hours. The cachexia typically lasts only a single day.

For assay [1], the target named is human melanocortin 3 receptor (MC3R) (human, UniProt P41968 1-323). The assay is described as follows: cell-based or functional assay.
Sequence of human melanocortin 3 receptor (MC3R) (P41968 whole entry): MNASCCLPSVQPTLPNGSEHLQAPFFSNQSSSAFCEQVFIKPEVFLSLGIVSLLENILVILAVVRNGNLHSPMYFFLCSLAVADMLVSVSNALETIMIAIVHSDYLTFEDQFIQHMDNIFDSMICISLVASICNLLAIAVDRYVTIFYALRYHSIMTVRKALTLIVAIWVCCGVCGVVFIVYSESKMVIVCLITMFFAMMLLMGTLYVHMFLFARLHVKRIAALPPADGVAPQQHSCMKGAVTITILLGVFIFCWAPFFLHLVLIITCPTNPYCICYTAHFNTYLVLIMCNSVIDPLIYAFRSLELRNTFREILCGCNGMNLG
Assay [2] concerns the target human melanocortin 4 receptor (MC4R) (human, UniProt P32245 1-332). The assay is described as follows: cell-based or functional assay.

Sequence of human melanocortin 4 receptor (MC4R) (P32245 whole entry): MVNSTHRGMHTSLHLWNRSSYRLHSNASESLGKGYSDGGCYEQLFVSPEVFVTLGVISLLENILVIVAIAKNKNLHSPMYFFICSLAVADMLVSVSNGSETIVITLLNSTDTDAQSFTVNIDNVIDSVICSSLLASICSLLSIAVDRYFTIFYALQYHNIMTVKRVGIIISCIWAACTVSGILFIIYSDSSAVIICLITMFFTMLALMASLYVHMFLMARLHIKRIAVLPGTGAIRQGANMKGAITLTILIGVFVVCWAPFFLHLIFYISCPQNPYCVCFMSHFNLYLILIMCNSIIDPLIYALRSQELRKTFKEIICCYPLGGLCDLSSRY

For “Ac-Nle-c[Asp-His-DNal(2′)-Arg-Trp-Lys]-DPro-DVal-NH2 (Ac-[Nle]DH[d2Nal]RWK[dP][dV]-NH2; lactam 2-7; SMILES CCCC[C@H](NC(C)=O)C(=O)N[C@H]1CC(=O)NCCCC[C@@H](C(=O)N2CCC[C@@H]2C(=O)N[C@@H](C(N)=O)C(C)C)NC(=O)[C@H](Cc2c[nH]c3ccccc23)NC(=O)[C@H](CCCNC(=N)N)NC(=O)[C@@H](Cc2ccc3ccccc3c2)NC(=O)[C@H](Cc2c[nH]cn2)NC1=O) [TCMCB03]”, in the assay on LPS model of cachexia, the “anti-cachectic activity after ICV administration” value (shortened to “anti-cachectic activity”) is given as “enhanced anti-cachexia; also recorded: superior anti-cachexia activity following ICV administration” and the “peripheral (IP) anti-cachexia activity / blood-brain barrier transport” value is listed as “failed to cross the blood brain barrier; also recorded: did not possess as good peripheral (intraperitoneal/IP administration) anti-cachexia activity”.
Take “Ac-Nle-c[Asp-Pro-DNal(2′)-Arg-Trp-Lys]-DVal-DPro (Ac-[Nle]DP[d2Nal]RWK[dV][dP]; lactam 2-7) [TCMCB07A]”: in the assay on LPS model of cachexia, the “peripheral (IP) anti-cachexia activity / blood-brain barrier transport” value was “equivalent stimulation of feeding”.
For “Ac-Nle-c[Asp-Pro-DNal(2′)-Arg-Trp-Lys]-β^2Val-β^3Pro-NH2 [TCMCB08]”, the “oral activity / gastrointestinal transport” value in the assay with LPS model of cachexia (gavage (intra-gastric)) is listed as “no gastrointestinal transport; also recorded: not as much oral activity as TCMCB07”. The “peripheral (IP) anti-cachexia activity / blood-brain barrier transport” value with LPS model of cachexia is given as “has peripheral activity; also recorded: good blood-brain barrier transport”.
As for “Ac-Nle-c[Asp-Pro-DNal(2′)-Arg-Trp-Lys]-β^3Pro-β^3Pro-NH2 [TCMCB10]”, in the assay with LPS model of cachexia, the “anti-cachectic activity” value is reported as “maintaining direct inhibitory effects” and the “peripheral (IP) anti-cachexia activity / blood-brain barrier transport” value was “showed no peripheral activity”.
Consider “Ac-Nle-c[Asp-Pro-DNal(2′)-Arg-Trp-Lys]-β^3Pro-β^3Val-NH2 [TCMCB06]”, for which, in the assay on LPS model of cachexia (0.2 mg/kg intraperitoneally), the “food intake and body weight, 24-hours” value was “ate less food than the other non-naturally occurring melanocortin analogs, and had no weight gain”. Moreover, the “anti-cachectic activity” value in the assay on LPS model of cachexia is “molar activity equivalent to TCMCB02”. Besides, the “molar activity relative to TCMCB02” value in the assay with LPS model of cachexia (ICV-administration) is 10 fold.
For “Ac-Nle-c[Asp-Pro-DNal(2′)-Arg-Trp-Lys]-β^3Val-β^3Pro-NH2 [TCMCB09]”, the “peripheral (IP) anti-cachexia activity / blood-brain barrier transport” value in the assay on LPS model of cachexia was “inactive peripherally”.
In the case of “Ac-Nle-c[D-Asp-Pro-DNal(2′)-Arg-Trp-DLys]-DPro-DVal-NH2 (Ac-[Nle][dD]P[d2Nal]RW[dK][dP][dV]-NH2; lactam 2-7) [TCMCB04]”, in the assay with LPS model of cachexia, the “anti-cachectic activity” value is “superior anti-cachectic activity compared to the parent compound”; the “peripheral (IP) anti-cachexia activity / blood-brain barrier transport” value is “No difference was observed between the non-naturally occurring melanocortin analog and saline; also recorded: eliminated blood brain barrier transport”.
With LDPFFRWKVP (lactam 2-8) [B3], the “Max Activation %” value in assay [1] turned out to be 0.83%; in assay [2], 4.41%.

B1: D5 (peptide)
peptide: Ac-[Nle]DPH[d2Nal]RWK[dP][dV]-NH2
modifications: lactam 2-8
SMILES: CCCC[C@H](NC(C)=O)C(=O)N[C@H]1CC(=O)NCCCC[C@@H](C(=O)N2CCC[C@@H]2C(=O)N[C@@H](C(N)=O)C(C)C)NC(=O)[C@H](Cc2c[nH]c3ccccc23)NC(=O)[C@H](CCCNC(=N)N)NC(=O)[C@@H](Cc2ccc3ccccc3c2)NC(=O)[C@H](Cc2c[nH]cn2)NC(=O)[C@@H]2CCCN2C1=O
As for B1, in assay [1], the “IC50 (cAMP by HTRF, antagonist dose-response)” value (“IC50” for short) was above 10000 nM. The “Max Activation %” value in assay [1] was 24.6%; in assay [2] it was 41.5%.
For the molecule LPFFRWVP [B4], the results for the “Max Activation %” value in assay [1] and in assay [2] were 7.81% and 16.1%, respectively.
As to Ac-[Nle]DP[d2Nal]RWK[dV][dP]-NH2 (lactam 2-7) [TCMCB07], in assay [1], the “IC50” value is 43.4 nM and the “Max Activation %” value was 112%. In addition, in assay [2], the “IC50” value was 26.9 nM and the “Max Activation %” value was determined as 118%.

B2: A1 (peptide)
peptide: Ac-[Nle]DP[d2Nal]RWK[dV][dP]-NH2
SMILES: CCCC[C@H](NC(C)=O)C(=O)N[C@@H](CC(=O)O)C(=O)N1CCC[C@H]1C(=O)N[C@H](Cc1ccc2ccccc2c1)C(=O)N[C@@H](CCCNC(=N)N)C(=O)N[C@@H](Cc1c[nH]c2ccccc12)C(=O)N[C@@H](CCCCN)C(=O)N[C@@H](C(=O)N1CCC[C@@H]1C(N)=O)C(C)C
B2: the figures for the “IC50” value in assay [1] and in assay [2] were 3660 nM and 3610 nM, respectively. Moreover, the results for the “Max Activation %” value in assay [1] and in assay [2] were 84.4% and 79.3%, respectively.

B3: D3 (peptide)
peptide: Ac-[Nle]D[Hyp][d2Nal]RWK[dV][dP]-NH2
modifications: lactam 2-7
SMILES: CCCC[C@H](NC(C)=O)C(=O)N[C@H]1CC(=O)NCCCC[C@@H](C(=O)N[C@@H](C(=O)N2CCC[C@@H]2C(N)=O)C(C)C)NC(=O)[C@H](Cc2c[nH]c3ccccc23)NC(=O)[C@H](CCCNC(=N)N)NC(=O)[C@@H](Cc2ccc3ccccc3c2)NC(=O)[C@@H]2C[C@@H](O)CN2C1=O
With B3, in assay [1], the “IC50” value was 87 nM and the “Max Activation %” value was determined as 111%. In addition, in assay [2], the “IC50” value is 40.6 nM and the “Max Activation %” value came to 117%.

B4: D4 (peptide)
peptide: Ac-[Nle]D[Hyp][d2Nal]RWPK[dV][dP]-NH2
modifications: lactam 2-8
SMILES: CCCC[C@H](NC(C)=O)C(=O)N[C@H]1CC(=O)NCCCC[C@@H](C(=O)N[C@@H](C(=O)N2CCC[C@@H]2C(N)=O)C(C)C)NC(=O)[C@@H]2CCCN2C(=O)[C@H](Cc2c[nH]c3ccccc23)NC(=O)[C@H](CCCNC(=N)N)NC(=O)[C@@H](Cc2ccc3ccccc3c2)NC(=O)[C@@H]2C[C@@H](O)CN2C1=O
On to B4, for which, in assay [1], the “IC50” value is above 10000 nM and the “Max Activation %” value worked out at 50.1%. Also, the “Max Activation %” value in assay [2] came out at 21%.

B5: TCMCB02 (peptide)
peptide: Ac-[Nle]DP[d2Nal]RWK[dP][dV]-NH2
modifications: lactam 2-7
SMILES: CCCC[C@H](NC(C)=O)C(=O)N[C@H]1CC(=O)NCCCC[C@@H](C(=O)N2CCC[C@@H]2C(=O)N[C@@H](C(N)=O)C(C)C)NC(=O)[C@H](Cc2c[nH]c3ccccc23)NC(=O)[C@H](CCCNC(=N)N)NC(=O)[C@@H](Cc2ccc3ccccc3c2)NC(=O)[C@@H]2CCCN2C1=O
Turning to B5, in assay [1], the “IC50” value was determined as 1360 nM and the “Max Activation %” value was 101%. Also, in assay [2], the “IC50” value was determined as 57.1 nM and the “Max Activation %” value is 120%.

B6: B2 (peptide)
peptide: Ac-LDPFFRWKVP-NH2
modifications: lactam 2-8
SMILES: CC(=O)N[C@@H](CC(C)C)C(=O)N[C@H]1CC(=O)NCCCC[C@@H](C(=O)N[C@H](C(=O)N2CCC[C@H]2C(N)=O)C(C)C)NC(=O)[C@H](Cc2c[nH]c3ccccc23)NC(=O)[C@H](CCCNC(=N)N)NC(=O)[C@H](Cc2ccccc2)NC(=O)[C@H](Cc2ccccc2)NC(=O)[C@@H]2CCCN2C1=O
As to B6, the “Max Activation %” value came to 10.3% in assay [1] and 35.5% in assay [2].

B7: D2 (peptide)
peptide: Ac-[Nle]DH[d2Nal]RWPK[dV][dP]-NH2
modifications: lactam 2-8
SMILES: CCCC[C@H](NC(C)=O)C(=O)N[C@H]1CC(=O)NCCCC[C@@H](C(=O)N[C@@H](C(=O)N2CCC[C@@H]2C(N)=O)C(C)C)NC(=O)[C@@H]2CCCN2C(=O)[C@H](Cc2c[nH]c3ccccc23)NC(=O)[C@H](CCCNC(=N)N)NC(=O)[C@@H](Cc2ccc3ccccc3c2)NC(=O)[C@H](Cc2c[nH]cn2)NC1=O
Regarding B7, the figures for the “Max Activation %” value in assay [1] and in assay [2] were 31.8% and 17.6%, respectively.

B8: B1 (peptide)
peptide: Ac-[Nle]DPFFRWK[dV][dP]-NH2
modifications: lactam 2-8
SMILES: CCCC[C@H](NC(C)=O)C(=O)N[C@H]1CC(=O)NCCCC[C@@H](C(=O)N[C@@H](C(=O)N2CCC[C@@H]2C(N)=O)C(C)C)NC(=O)[C@H](Cc2c[nH]c3ccccc23)NC(=O)[C@H](CCCNC(=N)N)NC(=O)[C@H](Cc2ccccc2)NC(=O)[C@H](Cc2ccccc2)NC(=O)[C@@H]2CCCN2C1=O
As to B8, the figures for the “Max Activation %” value in assay [1] and in assay [2] were 6.86% and 12.7%, respectively.
